Measurements taken from IntAct's records for PubMed 12080061.

B1: 182 kDa tankyrase-1-binding protein (Homo sapiens), Q9C0C2 (parent)
chain: MKVSTLRESSAMASPLPREMEEELVPTGSEPGDTRAKPPVKPKPRALPAKPALPAKPSLLVPVGPRPPRGPLAELPSARKMNMLAGPQPYGGSKRPLPFAPRPAVEASTGGEATQETGKEEAGKEEPPPLTPPARCAAPGGVRKAPAPFRPASERFAATTVEEILAKMEQPRKEVLASPDRLWGSRLTFNHDGSSRYGPRTYGTTTAPRDEDGSTLFRGWSQEGPVKSPAECREEHSKTPEERSLPSDLAFNGDLAKAASSELPADISKPWIPSSPAPSSENGGPASPGLPAEASGSGPGSPHLHPPDKSSPCHSQLLEAQTPEASQASPCPAVTPSAPSAALPDEGSRHTPSPGLPAEGAPEAPRPSSPPPEVLEPHSLDQPPATSPRPLIEVGELLDLTRTFPSGGEEEAKGDAHLRPTSLVQRRFSEGVLQSPSQDQEKLGGSLAALPQGQGSQLALDRPFGAESNWSLSQSFEWTFPTRPSGLGVWRLDSPPPSPITEASEAAEAAEAGNLAVSSREEGVSQQGQGAGSAPSGSGSSWVQGDDPSMSLTQKGDGESQPQFPAVPLEPLPTTEGTPGLPLQQAEERYESQEPLAGQESPLPLATREAALPILEPVLGQEQPAAPDQPCVLFADAPEPGQALPVEEEAVTLARAETTQARTEAQDLCRASPEPPGPESSSRWLDDLLASPPPSGGGARRGAGAELKDTQSPSTCSEGLLGWSQKDLQSEFGITGDPQPSSFSPSSWCQGASQDYGLGGASPRGDPGLGERDWTSKYGQGAGEGSTREWASRCGIGQEEMEASSSQDQSKVSAPGVLTAQDRVVGKPAQLGTQRSQEADVQDWEFRKRDSQGTYSSRDAELQDQEFGKRDSLGTYSSRDVSLGDWEFGKRDSLGAYASQDANEQGQDLGKRDHHGRYSSQDADEQDWEFQKRDVSLGTYGSRAAEPQEQEFGKSAWIRDYSSGGSSRTLDAQDRSFGTRPLSSGFSPEEAQQQDEEFEKKIPSVEDSLGEGSRDAGRPGERGSGGLFSPSTAHVPDGALGQRDQSSWQNSDASQEVGGHQERQQAGAQGPGSADLEDGEMGKRGWVGEFSLSVGPQREAAFSPGQQDWSRDFCIEASERSYQFGIIGNDRVSGAGFSPSSKMEGGHFVPPGKTTAGSVDWTDQLGLRNLEVSSCVGSGGSSEARESAVGQMGWSGGLSLRDMNLTGCLESGGSEEPGGIGVGEKDWTSDVNVKSKDLAEVGEGGGHSQARESGVGQTDWSGVEAGEFLKSRERGVGQADWTPDLGLRNMAPGAVCSPGESKELGVGQMDWGNNLGLRDLEVTCDPDSGGSQGLRGCGVGQMDWTQDLAPQNVELFGAPSEAREHGVGGVSQCPEPGLRHNGSLSPGLEARDPLEARELGVGETSGPETQGEDYSSSSLEPHPADPGMETGEALSFGASPGRCPARPPPSGSQGLLEEMLAASSSKAVARRESAASGLGGLLEEEGAGAGAAQEEVLEPGRDSPPSWRPQPDGEASQTEDVDGTWGSSAARWSDQGPAQTSRRPSQGPPARSPSQDFSFIEDTEILDSAMYRSRANLGRKRGHRAPVIRPGGTLGLSEAADSDAHLFQDSTEPRASRVPSSDEEVVEEPQSRRTRMSLGTKGLKVNLFPGLSPSALKAKLRPRNRSAEEGELAESKSSQKESAVQRSKSCKVPGLGKPLTLPPKPEKSSGSEGSSPNWLQALKLKKKKV

Variants of: B1
Conditions: with tnks1_human TNKS

| Variant | effect of a mutation on the interaction |
| --- | --- |
| G1513A | disrupting interaction strength |
